Publication PMC2474647

Target: GST-HP1β (UniProt P83917)
Assay: pull-down; GST-HP1β bound to glutathione beads, in nuclear extraction buffer, incubated with FLAG-TIF1βs purified from 293T cells by FLAG peptide elution; Western blot quantified with ImageGauge, normalised to GST-HP1β

Sequence of UniProt P83917 (P83917 whole entry): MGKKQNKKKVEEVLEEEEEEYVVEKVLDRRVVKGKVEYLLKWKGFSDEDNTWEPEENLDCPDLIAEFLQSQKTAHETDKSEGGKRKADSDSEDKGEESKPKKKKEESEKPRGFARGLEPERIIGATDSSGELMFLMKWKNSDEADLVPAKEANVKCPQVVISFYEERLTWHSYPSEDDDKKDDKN

Substance | relative level pulled down by GST-HP1β (normalised to GST-HP1β)
FLAG-TIF1β (wild type), expressed in 293T cells (natural protein) | 1.39
FLAG-TIF1β/S473A, expressed in 293T cells (natural protein) | 1.63
